Experimental data reported in patent US20240285784A1, “PEPTIDIC CONJUGATES OF SN38 USEFUL IN THE TREATMENT OF CANCER” (FUNDACIÓ INSTITUT DE RECERCA BIOMÈDICA (IRB BARCELONA), priority 2020, published 2024).
*1 amine or outer side, *2 acyl side, *3 side chain or, on linkers, in order; H or OH if unused. Where a SMILES comes first, the peptide text is derived from it. Bridges are numbered along the chain shown (N, C = ends). [ ]: non-standard residue; d: D form. The star is where a group is joined. ξ: configuration not given here. X6 = CCc1c2c(nc3ccc(OC(=O)OCc4ccc(NC(=O)[C@H](CCCNC(N)=O)NC(=O)[C@@H](NC(=O)COCC(=O)*)C(C)C)cc4)cc13)-c1cc3c(c(=O)n1C2)COC(=O)[C@]3(O)CC; X5 = CCc1c2c(nc3ccc(OC(=O)CCCCn4cc(CCCC(=O)NCCCOCCOCCOCCSCN*)nn4)cc13)-c1cc3c(c(=O)n1C2)COC(=O)[C@]3(O)CC; X7 = CCc1c2c(nc3ccc(OC(=O)*)cc13)-c1cc3c(c(=O)n1C2)COC(=O)[C@]3(O)CC; X4 = CC(O)CC(N[*:1])C(=O)[*:2]; Suc = O=C(CCC(=O)[*:2])[*:1]; Nva = CCC[C@H](N)C(=O)O; ξE = NC(CCC(=O)O)C(=O)O; Dap = NC[C@H](N)C(=O)O; ξD = NC(CC(=O)O)C(=O)O; ξK = NCCCCC(N)C(=O)O; ξT = CC(O)C(N)C(=O)O; ξDap = NCC(N)C(=O)O; ξP = O=C(O)C1CCCN1; ξA = CC(N)C(=O)O

What was measured:
[1] = Evaluation of solubility in water; format: physicochemical; settings: at 1 mg/mL
Procedure: 25 mg of SN38-linker A-MiniAp4 were dissolved in H2O, showing a completely transparent solution. This means that SN38-linker A-MiniAp4 has a solubility in water higher than 5 mg/mL, more than 400-fold the solubility in water described for SN38 (Mol. Pharmaceutics, 2016, 13, 379-390).

[2] = tested on: patient-derived xenograft of neuroblastoma HSJD-NB-013; settings: 6 doses of 100 mg/kg intravenous at days 1, 2, 3, 4, 5 and 8; one mouse, two tumors; until day 44

CCc1c2c(nc3ccc(OC(=O)CCCCn4cc(CCCC(=O)NCCCOCCOCCOCCSCNC(=O)CCC(=O)NC5CNC(=O)CC(C(N)=O)NC(=O)C(CC(C)O)NC(=O)C(C)NC(=O)C(C(C)O)NC(=O)C(CCC(=O)O)NC(=O)C6CCCN6C(=O)C(C)NC(=O)C(CCCCN)NC5=O)nn4)cc13)-c1cc3c(c(=O)n1C2)COC(=O)[C@]3(O)CC (stereo partly shown) [G2B-003 (Ic)] ({X5-Suc}-[ξDap][ξK][ξA][ξP][ξE][ξT][ξA][X4][ξD]-NH2; lactam 1-9)
solubility in water [1]: good solubility
antitumor response (tumor volume) [2]: measurable and long lasting antitumor response

CCc1c2c(nc3ccc(OC(=O)OCc4ccc(NC(=O)[C@H](CCCNC(N)=O)NC(=O)[C@@H](NC(=O)COCC(=O)N[C@H]5CNC(=O)C[C@@H](C(N)=O)NC(=O)[C@H](CC(C)C)NC(=O)[C@H](C)NC(=O)[C@H]([C@@H](C)O)NC(=O)[C@H](CCC(=O)O)NC(=O)[C@@H]6CCCN6C(=O)[C@H](C)NC(=O)[C@H](CCCCN)NC5=O)C(C)C)cc4)cc13)-c1cc3c(c(=O)n1C2)COC(=O)[C@]3(O)CC [G2B-004 (Id)] (X6-[Dap]KAPETALD-NH2; lactam 1-9)
solubility in water [1]: good solubility

CCC[C@H](NC(=O)CNC(=O)Oc1ccc2nc3c(c(CC)c2c1)Cn1c-3cc2c(c1=O)COC(=O)[C@]2(O)CC)C(=O)N1CCC[C@H]1C(=O)NCC(=O)N[C@H]1CNC(=O)C[C@@H](C(N)=O)NC(=O)[C@H](CC(C)C)NC(=O)[C@H](C)NC(=O)[C@H]([C@@H](C)O)NC(=O)[C@H](CCC(=O)O)NC(=O)[C@@H]2CCCN2C(=O)[C@H](C)NC(=O)[C@H](CCCCN)NC1=O [G2B-005 (Ie)] (X7-G[Nva]PG[Dap]KAPETALD-NH2; lactam 5-13)
solubility in water [1]: good solubility
